Several values for one entry are separate records, joined by “and”; a condition that tells them apart may be missing. Equal values may be shown once.

The target of one experiment is T1, PrP^Sc, pathogenic prion protein in brain homogenate of RML PrP^Sc+ Balb-c mice (mouse), P04925. Put plainly: bead pull-down, NaCl dissociation of bound PrP^Sc; Western blot. In general terms: In western blotting, separated proteins are transferred to a membrane and probed.
T1 sequence (P04925 23-230 limits assumed): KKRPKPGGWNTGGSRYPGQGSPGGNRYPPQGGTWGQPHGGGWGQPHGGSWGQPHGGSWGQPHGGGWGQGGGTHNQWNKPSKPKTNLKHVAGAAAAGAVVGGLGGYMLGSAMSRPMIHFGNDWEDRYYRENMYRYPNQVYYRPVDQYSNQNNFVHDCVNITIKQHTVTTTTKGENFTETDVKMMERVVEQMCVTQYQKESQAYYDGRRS
GGGKKRPKPGG (modifications not checked) [Peptide reagent SEQ ID NO:68]: the recovery rate following 1.0 M NaCl elution was 40% and 50%. The same measure, in the same setting: with GGGKKKKKKKK (modifications not checked) [Peptide reagent SEQ ID NO:85] the figure was 40% and 50%.

In the next experiment the target is T1, PrP^Sc, pathogenic prion protein in …. Put plainly: bead pull-down from PrP^Sc+ mouse brain homogenate; ELISA. In general terms: ELISA stands for enzyme-linked immunosorbent assay.
KKRPKGGG (modifications not checked) [Peptide reagent SEQ ID NO:120] had an ELISA A405nm of 0.631 A405nm.

KKRPKGGG (modifications not checked) [Peptide reagent SEQ ID NO:119] yielded an ELISA A405nm of 0.61 A405nm.

KKRPKGGG (modifications not checked) [Peptide reagent SEQ ID NO:122] gave an ELISA A405nm of 0.503 A405nm. Still for that read-out and setting: with KKRPKGGG (modifications not checked) [Peptide reagent SEQ ID NO:121] the figure was 0.509 A405nm.

For the origin of these results see patent US20090099343A1.
